As usually defined, the koff is a measure of how fast the partners let go of each other. High values mean a short-lived complex, low ones a long-lived complex. A word on the kon: it is the second-order rate constant of association. The low end stands for slow association, the high end for fast association. In general, Kd refers to the equilibrium constant for the complex coming apart. Read a low Kd as tighter binding.

Assay [1] has as its target human interleukin-6 (human) (UniProt P05231). Nature of the assay: SPR (BIAcore), human IL-6 immobilised, IL6gk3-2 scFv injected at 10 to 80 nM.
Assay [2] shares this target. Kind of assay: SPR (BIAcore), purified scFv. (Surface plasmon resonance follows binding to a sensor surface in real time, without labels.)

Sequence of UniProt P05231 (P05231 29-212 limits assumed): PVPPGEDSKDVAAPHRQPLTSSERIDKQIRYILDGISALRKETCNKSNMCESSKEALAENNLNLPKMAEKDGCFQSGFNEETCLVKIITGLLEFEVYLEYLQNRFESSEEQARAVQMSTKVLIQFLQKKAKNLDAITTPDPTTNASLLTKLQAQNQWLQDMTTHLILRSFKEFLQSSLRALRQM

B1: IL6gk3-2 scFv (purified soluble single chain Fv of the human anti-human IL-6 antibody clone IL6gk3-2) (scFv, part only; not given: linker and E-tag, V domains shown, not shown: another chain or arm of the molecule; small tags and cut ends)
VH: QVNLRESGGDLVKPGGSLRLSCAASGFTFRKYYMAWIRQAPGKGPEWLSTISNSGDIIDYADSVRGRFSISRDNAQKSLYLQMTSLRPDDSAIYYCAREYFFSFDVWGRGTMVTVSS
VL: DIVMTQSPSSVSASVGDRVTIFCRASQDIRNWVAWYQQKPGEAPKLLIYDGSSLQSGVPSRFSGSGSGTEFTLTISSLQPEDFATYYCQQSDSTPITFGQGTRLEIK
In assay [1], B1 displayed a koff of 0.0008 s⁻¹ and a kon of 60000 M⁻¹ s⁻¹. For the same molecule, in assay [2], the Kd amounted to 13 nM.

The values above are taken from US20060240012A1.
